Results taken from patent US20220017620A1.

Molecular target: B7-H3 on Hs-700T pancreatic cancer cells (UniProt Q5ZPR3)
Experiment: cell-based ELISA on fixed Hs-700T cells

B1: P1D1 full-length IgG1 antibody (antibody, V domains shown)
VH: QVQLVQSGAEVKKPGESLKISCKGSGYSFTSYWIGWVRQMPGKGLEWMGIIYPGDSDTRYSPSFQGQVTISADKSISTAYLQWSSLKASDTAMYYCARRSVAGLDYWGQGTLVTVSS
VL: KTVVTQPPSASGTPGQRVTISCSGSSSNIGSKYVYWYQQLPGTAPRLLIYRNNQRPSGVPDRFSGSKSGTSASLAISGLRSEDESDYYCASWDDRLKGYAFGTGTKVTVL
EC50 (read off the curve): 0.03 µg/mL

B2: P1G2 full-length IgG1 antibody (antibody, V domains shown)
VH: QVQLQQSGAEVKKPGSSVKVSCKASGGTFSSYAISWVRQAPGQGLEWMGRIIPILGIANYAQKFQGRVTITADKSTSTAYMELSSLRSEDTAVYYCAVNYYDSSGYYSDYWGQGTLVTVSS
VL: SYELTQPPSASGSPGQSVTISCTGTSSDVGGYNYVSWYQQHPGKAPRLMIYGVSQRPSGVPDRFSGSKSGNTASLTVSGLQAEDEADYYCSSYANNNYVFGTGTKVTVL
EC50 (read off the curve): 0.03 µg/mL
